The values below come from US20100166747A1.

For assay [1], the target named is hu IGF-1R(ECD)-C3-muIgG1Fc (human; mouse). The assay is described as follows: ORIGEN competition on IGF-1R(ECD)-C3-muFc beads; competitor 1 nM Ru-IGF-1.
Assay [2] has the same target. Put plainly: ORIGEN competition on IGF-1R(ECD)-C3-muFc beads; competitor 2 nM Ru-IGF-2.

For “murine anti-IGF-1R antibody 1H7 (Santa Cruz Biotechnology)”, the Max (%) maximum level of inhibition at 1 µM antibody was determined as 89% in assay [1] and 99% in assay [2].

Substance “murine anti-IGF-1R antibody αIR3 (Calbiochem)” showed a Max (%) maximum level of inhibition at 1 µM antibody in assay [1] of 91%.
